Source: IntAct's records for PubMed 31515488

B1: Katanin p60 ATPase-containing subunit A-like 1 (Homo sapiens), Q9BW62 (parent)
chain: MNLAEICDNAKKGREYALLGNYDSSMVYYQGVMQQIQRHCQSVRDPAIKGKWQQVRQELLEEYEQVKSIVSTLESFKIDKPPDFPVSCQDEPFRDPAVWPPPVPAEHRAPPQIRRPNREVRPLRKEMAGVGARGPVGRAHPISKSEKPSTSRDKDYRARGRDDKGRKNMQDGASDGEMPKFDGAGYDKDLVEALERDIVSRNPSIHWDDIADLEEAKKLLREAVVLPMWMPDFFKGIRRPWKGVLMVGPPGTGKTMLAKAVATECGTTFFNVSSSTLTSKYRGESEKLVRLLFEMARFYAPTTIFIDEIDSICSRRGTSDEHEASRRVKSELLIQMDGVGGALENDDPSKMVMVLAATNFPWDIDEALRRRLEKRIYIPLPTAKGRAELLKINLREVELDPDIQLEDIAEKIEGYSGADITNVCRDASLMAMRRRINGLSPEEIRALSKEELQMPVTKGDFELALKKIAKSVSAADLEKYEKWMVEFGSA
partner: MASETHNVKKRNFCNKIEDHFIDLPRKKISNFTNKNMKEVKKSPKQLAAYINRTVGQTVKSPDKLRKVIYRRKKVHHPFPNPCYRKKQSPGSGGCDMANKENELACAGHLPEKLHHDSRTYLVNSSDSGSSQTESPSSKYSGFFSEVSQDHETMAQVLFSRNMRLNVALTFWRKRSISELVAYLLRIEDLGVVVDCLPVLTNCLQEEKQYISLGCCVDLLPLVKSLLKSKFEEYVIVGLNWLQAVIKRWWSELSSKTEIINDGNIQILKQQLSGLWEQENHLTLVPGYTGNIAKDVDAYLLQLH
B2: Sodium channel modifier 1 (Homo sapiens), Q9BWG6 (parent)
chain: MSFKREGDDWSQLNVLKKRRVGDLLASYIPEDEALMLRDGRFACAICPHRPVLDTLAMLTAHRAGKKHLSSLQLFYGKKQPGKERKQNPKHQNELRREETKAEAPLLTQTRLITQSALHRAPHYNSCCRRKYRPEAPGPSVSLSPMPPSEVKLQSGKISREPEPAAGPQAEESATVSAPAPMSPTRRRALDHYLTLRSSGWIPDGRGRWVKDENVEFDSDEEEPPDLPLD
partner: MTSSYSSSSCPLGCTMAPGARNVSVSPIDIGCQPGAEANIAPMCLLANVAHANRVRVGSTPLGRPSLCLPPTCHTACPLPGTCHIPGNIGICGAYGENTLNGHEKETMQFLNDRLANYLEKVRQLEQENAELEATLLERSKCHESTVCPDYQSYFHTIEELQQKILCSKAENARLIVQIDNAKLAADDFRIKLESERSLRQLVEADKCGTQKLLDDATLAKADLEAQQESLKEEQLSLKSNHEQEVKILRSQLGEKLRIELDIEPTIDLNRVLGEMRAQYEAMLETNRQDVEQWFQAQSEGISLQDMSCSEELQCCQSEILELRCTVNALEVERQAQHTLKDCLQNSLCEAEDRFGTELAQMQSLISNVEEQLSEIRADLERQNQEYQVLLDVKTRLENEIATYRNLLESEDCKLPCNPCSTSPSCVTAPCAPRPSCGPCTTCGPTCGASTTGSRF
B3: Zinc finger protein 655 (Homo sapiens), Q8N720 (parent)
chain: MEEIPAQEAAGSPRVQFQSLETQSECLSPEPQFVQDTDMEQGLTGDGETREENKLLIPKQKISEEVHSYKVRVGRLKHDITQVPETREVYKSEDRLERLQEILRKFLYLEREFRQITISKETFTSEKNNECHEPEKSFSLDSTIDADQRVLRIQNTDDNDKYDMSFNQNSASGKHEHLNLTEDFQSSECKESLMDLSHLNKWESIPNTEKSYKCDVCGKIFHQSSALTRHQRIHTREKPYKCKECEKSFSQSSSLSRHKRIHTREKPYKCEASDKSCEASDKSCSPSSGIIQHKKIHTRAKSYKCSSCERVFSRSVHLTQHQKIHKEMPCKCTVCGSDFCHTSYLLEHQRVHHEEKAYEYDEYGLAYIKQQGIHFREKPYTCSECGKDFRLNSHLIQHQRIHTGEKAHECNECGKAFSQTSCLIQHHKMHRKEKSYECNEYEGSFSHSSDLILQQEVLTRQKAFDCDVWEKNSSQRAHLVQHQSIHTKENS
partner: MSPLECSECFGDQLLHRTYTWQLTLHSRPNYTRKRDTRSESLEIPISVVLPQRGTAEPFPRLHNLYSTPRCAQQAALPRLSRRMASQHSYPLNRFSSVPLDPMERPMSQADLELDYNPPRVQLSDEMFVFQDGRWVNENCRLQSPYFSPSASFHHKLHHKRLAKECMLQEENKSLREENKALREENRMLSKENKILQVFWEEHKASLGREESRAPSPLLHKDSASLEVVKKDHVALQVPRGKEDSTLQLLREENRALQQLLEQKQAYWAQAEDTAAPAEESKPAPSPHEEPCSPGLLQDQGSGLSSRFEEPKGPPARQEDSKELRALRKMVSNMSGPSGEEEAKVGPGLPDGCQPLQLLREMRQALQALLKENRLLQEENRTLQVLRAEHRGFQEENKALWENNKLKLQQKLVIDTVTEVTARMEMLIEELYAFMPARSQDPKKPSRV
B4: Protein mab-21-like 3 (Homo sapiens), Q8N8X9 (parent)
chain: MKYLTVGDLEDCLLNKVDLRRQQISQAVEEVQKVVHHLTTNISNQDIRFQAVPYSDTYNENIKVLAPSQFLVTVPIKGLAGYREAREQHWRYYTLQGTRLPCPLRDPEGLQQWLEVEQFMKSLWQWHETDVNIDGDIVPAKVLLVFRKLVENAVRTCHLSGKVSLLGNRSAVWVAVETSAYQVELELVPAVEIPTTWSKKARWPRCLQRWPSQERVECIKSFGFNLLACSNYHWQLSFLRAEQVLLEQLDEDGGCRRKCFQVMRHLKEDIWCPGNRPVITSHHLQTVLFWTCEKYPHFKDWQVFSKAFLRLVRKLHKCVSQHFLKHYFVRNSNLFQCTNPTELDTVAQKLATFLKNPQIGPP
partner: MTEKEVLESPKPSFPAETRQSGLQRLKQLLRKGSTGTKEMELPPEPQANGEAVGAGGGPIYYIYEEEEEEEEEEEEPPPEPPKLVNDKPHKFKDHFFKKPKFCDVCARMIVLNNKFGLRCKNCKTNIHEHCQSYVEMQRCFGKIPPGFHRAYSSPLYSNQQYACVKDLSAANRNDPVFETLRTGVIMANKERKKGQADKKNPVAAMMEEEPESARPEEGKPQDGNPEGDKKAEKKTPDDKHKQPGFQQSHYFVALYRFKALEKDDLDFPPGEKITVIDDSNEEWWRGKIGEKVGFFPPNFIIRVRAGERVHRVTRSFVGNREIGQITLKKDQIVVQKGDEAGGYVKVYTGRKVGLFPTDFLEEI

Variants of: B1
Settings: with ktbl1_human KATNBL1, Q9H079

Row | effect of a mutation on the interaction | Variant
1 | with no effect | C424S
2 | with no effect | I142M
3 | with no effect | V272I

Variants of: B2
Settings: with krt38_human KRT38, O76015

Row | effect of a mutation on the interaction | Variant
4 | with no effect | A174V

Variants of: B3
Settings: with cby2_human CBY2, Q8NA61

Row | effect of a mutation on the interaction | Variant
5 | with no effect | C466G

Variants of: B4
Settings: with stac3_human STAC3, Q96MF2

Row | effect of a mutation on the interaction | Variant
6 | with no effect | T338A
